Test results published in publication PMC4579036.
Like-named read-outs stand apart in the source and are kept apart here.

How the values were obtained:
Experiment in all cases: competition
[1] = biological target: T1, Fis (Escherichia coli, UniProt P0A6R3 1-98)
[2] = biological target: T1, Fis; remark: listed apart in the source
[3] = biological target: T1, Fis; remark: listed apart in the source

T1 sequence (P0A6R3 whole entry): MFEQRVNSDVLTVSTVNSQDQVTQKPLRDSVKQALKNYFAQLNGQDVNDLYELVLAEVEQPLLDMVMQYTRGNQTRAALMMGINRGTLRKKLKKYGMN

B1: F1 (dsDNA)
DNA 1: AAATTTGTTTGAATTTTGAGCAAATTT
DNA 2: AAATTTGCTCAAAATTCAAACAAATTT
binding result [1]: binds

B2: F28 (dsDNA)
DNA 1: AAATTTGTTTGAGCGTTGAGCAAATTT
DNA 2: AAATTTGCTCAACGCTCAAACAAATTT
binding result [2]: binds

B3: F29 (dsDNA)
DNA 1: AAATTTGTTTGGGCGCTGAGCAAATTT
DNA 2: AAATTTGCTCAGCGCCCAAACAAATTT
binding result [3]: binds
